Data taken from paper PMC7948726.

Molecular target: 14-3-3β (UniProt P31946)
Experiment: anti-FLAG co-IP, anti-HA blot
Details: reference: FLAG-DYRK1A wild type; sites S529

binding against the reference: weaker
Substance: DYRK1A (from UniProt Q63470) FLAG-DYRK1A-S529A
